Assay results from US10344077.

What was measured:
AtheNA, Ab 25 ug/ml = substrate: T1, SSB (UniProt P05455); assay: AtheNA, Ab 25 ug/ml
T1 sequence (looked up): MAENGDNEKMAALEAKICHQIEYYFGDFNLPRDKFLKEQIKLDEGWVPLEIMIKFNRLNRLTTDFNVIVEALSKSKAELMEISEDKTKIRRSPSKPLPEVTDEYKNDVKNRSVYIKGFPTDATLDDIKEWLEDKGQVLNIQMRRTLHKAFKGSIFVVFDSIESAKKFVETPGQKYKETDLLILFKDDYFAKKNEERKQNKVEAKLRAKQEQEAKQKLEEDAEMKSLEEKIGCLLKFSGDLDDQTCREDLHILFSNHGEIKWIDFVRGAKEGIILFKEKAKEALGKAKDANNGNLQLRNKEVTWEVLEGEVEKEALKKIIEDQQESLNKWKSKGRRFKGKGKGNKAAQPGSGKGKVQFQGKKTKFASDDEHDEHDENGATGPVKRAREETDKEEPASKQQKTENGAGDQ

AtheNA, Ab 12.5 ug/ml = substrate: T1, ; assay: AtheNA, Ab 12.5 ug/ml
Histones [1] = assay: AtheNA, Ab 25 ug/ml
Sm (Smith antigen) [2] = assay: AtheNA, Ab 25 ug/ml
Centromere B [3] = target: T2, Centromere B (UniProt P07199); assay: AtheNA, Ab 25 ug/ml
T2 sequence (looked up): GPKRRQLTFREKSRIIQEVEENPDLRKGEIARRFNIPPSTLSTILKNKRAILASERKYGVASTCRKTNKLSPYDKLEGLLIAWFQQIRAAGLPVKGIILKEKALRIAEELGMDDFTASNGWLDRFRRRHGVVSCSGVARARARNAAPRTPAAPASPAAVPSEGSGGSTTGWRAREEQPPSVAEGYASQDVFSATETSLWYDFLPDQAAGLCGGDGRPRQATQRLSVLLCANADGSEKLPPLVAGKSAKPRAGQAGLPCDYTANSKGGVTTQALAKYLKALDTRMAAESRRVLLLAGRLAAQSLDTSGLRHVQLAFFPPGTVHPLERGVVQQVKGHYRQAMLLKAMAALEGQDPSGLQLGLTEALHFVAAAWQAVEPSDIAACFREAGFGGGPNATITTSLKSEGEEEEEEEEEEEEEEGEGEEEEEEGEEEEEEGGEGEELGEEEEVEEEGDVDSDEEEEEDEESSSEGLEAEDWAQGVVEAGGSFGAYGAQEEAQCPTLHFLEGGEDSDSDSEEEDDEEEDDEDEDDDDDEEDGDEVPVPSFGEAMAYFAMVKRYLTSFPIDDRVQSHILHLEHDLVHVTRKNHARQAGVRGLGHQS

SSA [4] = assay: AtheNA, Ab 25 ug/ml
Jo-1 [5] = target: T3, Jo-1 (UniProt P12081); assay: AtheNA, Ab 25 ug/ml
T3 sequence (looked up): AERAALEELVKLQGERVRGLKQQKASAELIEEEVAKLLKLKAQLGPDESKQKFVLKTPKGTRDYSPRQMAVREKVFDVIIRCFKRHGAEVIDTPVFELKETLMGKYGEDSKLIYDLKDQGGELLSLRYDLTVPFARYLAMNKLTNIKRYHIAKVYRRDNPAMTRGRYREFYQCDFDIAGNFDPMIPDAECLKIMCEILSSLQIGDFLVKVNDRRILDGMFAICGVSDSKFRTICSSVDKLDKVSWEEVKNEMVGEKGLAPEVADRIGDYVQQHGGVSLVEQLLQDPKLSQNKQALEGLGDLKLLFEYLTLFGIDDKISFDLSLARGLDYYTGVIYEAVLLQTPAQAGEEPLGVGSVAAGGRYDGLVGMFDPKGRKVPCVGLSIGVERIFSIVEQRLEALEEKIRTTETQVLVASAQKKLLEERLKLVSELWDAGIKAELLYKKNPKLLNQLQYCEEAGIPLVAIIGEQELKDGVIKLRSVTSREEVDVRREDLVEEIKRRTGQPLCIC

RNP (ribonucleoprotein) [6] = assay: AtheNA, Ab 25 ug/ml
Scl-70 [7] = target: Scl-70 (UniProt P11387); assay: AtheNA, Ab 25 ug/ml
Scl-70, sequence (P11387 2-765 limits assumed): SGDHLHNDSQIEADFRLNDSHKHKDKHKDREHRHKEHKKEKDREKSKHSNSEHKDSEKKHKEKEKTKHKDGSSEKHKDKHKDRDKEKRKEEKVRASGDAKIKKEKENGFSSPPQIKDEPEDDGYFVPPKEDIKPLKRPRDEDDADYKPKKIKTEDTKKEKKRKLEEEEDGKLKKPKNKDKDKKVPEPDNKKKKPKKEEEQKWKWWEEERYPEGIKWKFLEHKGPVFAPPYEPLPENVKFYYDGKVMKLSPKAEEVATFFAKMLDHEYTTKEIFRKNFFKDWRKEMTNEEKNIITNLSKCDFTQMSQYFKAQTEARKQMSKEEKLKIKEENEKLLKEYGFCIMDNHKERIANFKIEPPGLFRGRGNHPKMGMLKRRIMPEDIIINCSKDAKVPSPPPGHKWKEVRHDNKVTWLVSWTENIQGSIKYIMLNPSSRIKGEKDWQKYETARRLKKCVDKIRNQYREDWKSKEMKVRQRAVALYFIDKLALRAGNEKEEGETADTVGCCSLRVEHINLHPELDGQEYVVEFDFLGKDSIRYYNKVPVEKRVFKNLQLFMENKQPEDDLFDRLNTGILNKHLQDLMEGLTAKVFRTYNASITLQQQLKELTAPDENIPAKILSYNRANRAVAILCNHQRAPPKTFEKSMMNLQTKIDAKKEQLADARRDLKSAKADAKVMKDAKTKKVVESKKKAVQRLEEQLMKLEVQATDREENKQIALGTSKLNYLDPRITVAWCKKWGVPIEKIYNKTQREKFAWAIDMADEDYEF

Histones [8] = assay: AtheNA, Ab 6.25 ug/ml
Sm (Smith antigen) [9] = assay: AtheNA, Ab 6.25 ug/ml
Centromere B [10] = target: T2, Centromere B; assay: AtheNA, Ab 6.25 ug/ml
SSA [11] = assay: AtheNA, Ab 6.25 ug/ml
Jo-1 [12] = target: T3, Jo-1; assay: AtheNA, Ab 6.25 ug/ml
RNP (ribonucleoprotein) [13] = assay: AtheNA, Ab 6.25 ug/ml
Scl-70 [14] = target: Scl-70 (UniProt P11387); assay: AtheNA, Ab 6.25 ug/ml
AtheNA, Ab 6.25 ug/ml = substrate: T1, ; assay: AtheNA, Ab 6.25 ug/ml
Histones [15] = assay: AtheNA, Ab 12.5 ug/ml
Sm (Smith antigen) [16] = assay: AtheNA, Ab 12.5 ug/ml
Centromere B [17] = target: T2, Centromere B; assay: AtheNA, Ab 12.5 ug/ml
SSA [18] = assay: AtheNA, Ab 12.5 ug/ml
Jo-1 [19] = target: T3, Jo-1; assay: AtheNA, Ab 12.5 ug/ml
RNP (ribonucleoprotein) [20] = assay: AtheNA, Ab 12.5 ug/ml
Scl-70 [21] = target: Scl-70 (UniProt P11387); assay: AtheNA, Ab 12.5 ug/ml
Histones [22] = assay: AtheNA, Ab 50 ug/ml
Sm (Smith antigen) [23] = assay: AtheNA, Ab 50 ug/ml
Centromere B [24] = target: T2, Centromere B; assay: AtheNA, Ab 50 ug/ml
SSA [25] = assay: AtheNA, Ab 50 ug/ml

B1: CH235_4A (antibody, from a related filing, V domains shown)
VH: QVQLVQSGAEVKKPGASVTVSCQASGYTFTNYYVHWVRQAPGQGLQLMGWIDPSWGRTNYAQNFQGRITMTRDTSTSTVYMEMRSLRSEDTAVYYCARNVATEGSLLHYDYWGQGTLVTVSA
VL: EIVLTQSPATLSVSPGERATLSCRASQSVRSNLAWYQQRPGQAPRLLIYGTSTRATGVPARFSGRGSGTEFTLAISSMQSEDFAVYLCLQYNNWWTFGQGTKVEIK
- Athena reading (relative luminescence units) (AtheNA, Ab 25 ug/ml): 5
- Athena reading (relative luminescence units) (AtheNA, Ab 12.5 ug/ml): 5
- Athena reading (relative luminescence units) (Histones [1]): 7
- Athena reading (relative luminescence units) (Sm (Smith antigen) [2]): 7
- Athena reading (relative luminescence units) (Centromere B [3]): 6
- Athena reading (relative luminescence units) (SSA [4]): 13
- Athena reading (relative luminescence units) (Jo-1 [5]): 4
- Athena reading (relative luminescence units) (RNP (ribonucleoprotein) [6]): 5
- Athena reading (relative luminescence units) (Scl-70 [7]): 4
- Athena reading (relative luminescence units) (Histones [8]): 5
- Athena reading (relative luminescence units) (Sm (Smith antigen) [9]): 5
- Athena reading (relative luminescence units) (Centromere B [10]): 3
- Athena reading (relative luminescence units) (SSA [11]): 12
- Athena reading (relative luminescence units) (Jo-1 [12]): 2
- Athena reading (relative luminescence units) (RNP (ribonucleoprotein) [13]): 3
- Athena reading (relative luminescence units) (Scl-70 [14]): 2
- Athena reading (relative luminescence units) (AtheNA, Ab 6.25 ug/ml): 6
- Athena reading (relative luminescence units) (Histones [15]): 5
- Athena reading (relative luminescence units) (Sm (Smith antigen) [16]): 8
- Athena reading (relative luminescence units) (Centromere B [17]): 5
- Athena reading (relative luminescence units) (SSA [18]): 13
- Athena reading (relative luminescence units) (Jo-1 [19]): 3
- Athena reading (relative luminescence units) (RNP (ribonucleoprotein) [20]): 6
- Athena reading (relative luminescence units) (Scl-70 [21]): 2

B2: CH240_4A/293i (antibody, from a related filing, V domains shown)
VH: QVQLVQSGTEVRKPGASVTISCKASGYTFNNFYVHWVRQAPGQGLECMGWIDPSVGRISYGQKFQGRVTMTRDRSTSTVYMGLSSLRSEDTAMYYCVRDVGTEGSLLHFDHWGQGTLVIVSA
VL: EIVLTQSPATLSVSPGERATLSCRATQSVRSNLAWYQQKRGQAPRLLIYSASTRATGIPARFSGSGSGTEFTLTISSVQSEDFAVYYCLQYNNWWTFGQGTKVEIK
- Athena reading (relative luminescence units) (AtheNA, Ab 25 ug/ml): 11
- Athena reading (relative luminescence units) (AtheNA, Ab 12.5 ug/ml): 5
- Athena reading (relative luminescence units) (Histones [1]): 27
- Athena reading (relative luminescence units) (Sm (Smith antigen) [2]): 22
- Athena reading (relative luminescence units) (Centromere B [3]): 24
- Athena reading (relative luminescence units) (SSA [4]): 16
- Athena reading (relative luminescence units) (Jo-1 [5]): 11
- Athena reading (relative luminescence units) (RNP (ribonucleoprotein) [6]): 11
- Athena reading (relative luminescence units) (Scl-70 [7]): 6
- Athena reading (relative luminescence units) (Histones [8]): 9
- Athena reading (relative luminescence units) (Sm (Smith antigen) [9]): 9
- Athena reading (relative luminescence units) (Centromere B [10]): 8
- Athena reading (relative luminescence units) (SSA [11]): 12
- Athena reading (relative luminescence units) (Jo-1 [12]): 5
- Athena reading (relative luminescence units) (RNP (ribonucleoprotein) [13]): 6
- Athena reading (relative luminescence units) (Scl-70 [14]): 3
- Athena reading (relative luminescence units) (AtheNA, Ab 6.25 ug/ml): 5
- Athena reading (relative luminescence units) (Histones [15]): 18
- Athena reading (relative luminescence units) (Sm (Smith antigen) [16]): 13
- Athena reading (relative luminescence units) (Centromere B [17]): 15
- Athena reading (relative luminescence units) (SSA [18]): 14
- Athena reading (relative luminescence units) (Jo-1 [19]): 7
- Athena reading (relative luminescence units) (RNP (ribonucleoprotein) [20]): 8
- Athena reading (relative luminescence units) (Scl-70 [21]): 4

B3: CH241 (antibody, from a related filing, V domains shown)
VH: QVQLVQSGAAVKKPGASVRVSCKASGYTFTSSHIHWVRQAPGQGPEWMGMIDPSVGRPTTAGKFQGRVTMTRDRYTSTAYMDLSSLRSEDTAVYYCARSVETTGSLLYFDYWGQGTLITVSS
VL: EIVLTQSPATLSVSPGERATLSCRASQSVRSNIAWYQQKPGQAPRLLIHGASTRATGIPGRFSGSGSGPEFTLAISSVQSEDFAVYYCQQYNDWWTFGQGTKVEIK
- Athena reading (relative luminescence units) (AtheNA, Ab 25 ug/ml): 6
- Athena reading (relative luminescence units) (AtheNA, Ab 12.5 ug/ml): 8
- Athena reading (relative luminescence units) (Histones [1]): 20
- Athena reading (relative luminescence units) (Sm (Smith antigen) [2]): 11
- Athena reading (relative luminescence units) (Centromere B [3]): 14
- Athena reading (relative luminescence units) (SSA [4]): 15
- Athena reading (relative luminescence units) (Jo-1 [5]): 5
- Athena reading (relative luminescence units) (RNP (ribonucleoprotein) [6]): 6
- Athena reading (relative luminescence units) (Scl-70 [7]): 4
- Athena reading (relative luminescence units) (Histones [8]): 9
- Athena reading (relative luminescence units) (Sm (Smith antigen) [9]): 4
- Athena reading (relative luminescence units) (Centromere B [10]): 6
- Athena reading (relative luminescence units) (SSA [11]): 15
- Athena reading (relative luminescence units) (Jo-1 [12]): 2
- Athena reading (relative luminescence units) (RNP (ribonucleoprotein) [13]): 3
- Athena reading (relative luminescence units) (Scl-70 [14]): 1
- Athena reading (relative luminescence units) (AtheNA, Ab 6.25 ug/ml): 4
- Athena reading (relative luminescence units) (Histones [15]): 13
- Athena reading (relative luminescence units) (Sm (Smith antigen) [16]): 7
- Athena reading (relative luminescence units) (Centromere B [17]): 8
- Athena reading (relative luminescence units) (SSA [18]): 14
- Athena reading (relative luminescence units) (Jo-1 [19]): 6
- Athena reading (relative luminescence units) (RNP (ribonucleoprotein) [20]): 5
- Athena reading (relative luminescence units) (Scl-70 [21]): 3

B4: CH239_4A/293i (antibody, from a related filing, V domains shown)
VH: QVQLVQSGAEVRKPGASVTVSCKASGYTFNNFYVHWVRQAPGQGLECMGWIDPSVGRINYAQKFQGRVTMTRDRSTSTVYMGLSSLRSEDTAIYYCVRDVGTEGSLLHFDHWGQGTLVIVSA
VL: EIVLTQSPATLSVSPGERATLSCRATQSVRSNVAWYQQKPGQAPRLLIYSASTRATGIPARFSGSGSGTEFTLTIASMQSEDFAVYYCLQYDDWWTFGQGTKVEIK
- Athena reading (relative luminescence units) (AtheNA, Ab 25 ug/ml): 8
- Athena reading (relative luminescence units) (Histones [22]): 228
- Athena reading (relative luminescence units) (Sm (Smith antigen) [23]): 250
- Athena reading (relative luminescence units) (Centromere B [24]): 173
- Athena reading (relative luminescence units) (SSA [25]): 289
- Athena reading (relative luminescence units) (AtheNA, Ab 12.5 ug/ml): 6
- Athena reading (relative luminescence units) (Histones [1]): 253
- Athena reading (relative luminescence units) (Sm (Smith antigen) [2]): 237
- Athena reading (relative luminescence units) (Centromere B [3]): 199
- Athena reading (relative luminescence units) (SSA [4]): 306
- Athena reading (relative luminescence units) (Jo-1 [5]): 11
- Athena reading (relative luminescence units) (RNP (ribonucleoprotein) [6]): 96
- Athena reading (relative luminescence units) (Histones [8]): 266
- Athena reading (relative luminescence units) (Sm (Smith antigen) [9]): 285
- Athena reading (relative luminescence units) (Centromere B [10]): 260
- Athena reading (relative luminescence units) (SSA [11]): 178
- Athena reading (relative luminescence units) (Jo-1 [12]): 8
- Athena reading (relative luminescence units) (RNP (ribonucleoprotein) [13]): 78
- Athena reading (relative luminescence units) (Scl-70 [14]): 49
- Athena reading (relative luminescence units) (AtheNA, Ab 6.25 ug/ml): 5
- Athena reading (relative luminescence units) (Histones [15]): 263
- Athena reading (relative luminescence units) (Sm (Smith antigen) [16]): 277
- Athena reading (relative luminescence units) (Centromere B [17]): 216
- Athena reading (relative luminescence units) (SSA [18]): 277
- Athena reading (relative luminescence units) (Jo-1 [19]): 8
- Athena reading (relative luminescence units) (RNP (ribonucleoprotein) [20]): 85
- Athena reading (relative luminescence units) (Scl-70 [21]): 48
